Results: the nanobody polyreactivity screen of Harvey et al. (2022)

Assay: yeast display, Sf9 membrane polyspecificity reagent, FACS + sequencing; frameworks hold sequencing errors
Summary of the method: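 Galactose induction of a Saccharomyces cerevisiae BJ5465 synthetic nanobody display library ran 36–48 hours. The cells were then stained for 1 hour at 4 °C with 10% biotinylated, detergent-solubilized Sf9 membrane reagent, pulled down on streptavidin microbeads and FACS-sorted into low and high (top ~1%) gates on expression and reagent-binding fluorescence. Labels for polyreactivity follow the gate of origin.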

Row | Sequence | polyreactivity (PSR sort gate)
1 | QVQIVESGGGLVQAGGSLRVSCAASGFTFDENAMGWYRQAPGINYSGASTYYADSVKGRFTISRDNAKNTVYLQMNSVKQDDTAVYYCAAEVVAQMNYWGQGTQVTVSS | low polyreactivity
2 | QVQLVESGGGLVQAGGSLRLSCAASGSIFWAYTMGWYRQAPGKERELVAAISASGGSTYYADSVKGRFTISRDNAKNTVYFQMNSLKPEDTAVYYCAAVYDLGYYGPIWAIVLDDYWGQGTQVTVSS | low polyreactivity
3 | QVQLVESGGGLVQAGGSLRLSCAASGSIFTYYAMGWYRKAPGKERELVAAITKSGGRTYYAHSVMGRFTISRDNAKNTVYLQMNRLKPEDTAVYYCAALYGRYQTSYQFDYWGQGTQVTVSS | high polyreactivity
4 | QVHLVESGGGLVQAGGSLRLSCAASGGTFYYNTMGWSRQAPGKERELVAAITSGTSTNYADSVKGRFTISRDNAKNTVYLQMNSRIQEDTAVFDCAADPDADDPRRGYDYWGQGTQVTVSS | low polyreactivity
5 | QVQLVESGGGLVQAGGSLRLSCAASGFIFKTYAMGWYRQAPGKERELVAAITGTGTSTYYADSVKGRFTISRDNAKNTVYLQMNSLKTEDTAVYYCAAEFGGRSYYPRHEYWGQGTQVTVSS | low polyreactivity
6 | QVQLVESGGGLVQAGGSLRLSCAASGFTFSYYAMGWYRQAPRKERELVAAISGGGGTNYADSVKGRFTISRDNAKNTVYLQMNSLKPEDTAVYYCATDQFTQPSHRRDYWGQGTQVTVSS | low polyreactivity
7 | QVQLVESGGGLVQAGGSLRLSCAASGRTFGAYAMGWYRQAPGKERELVAAISSSGGSTYYADSLKGRFTISRDNAKNTVYLQMNSLKPEDTAVYYCAKGWHRGVGFGYWGQGTQVTVSS | high polyreactivity
8 | QVQLVESGGGLVQAGGSLRLSSAASGSIFGYNPMGWYRPAPGKERELVAAIRISTDNTYYADSVKGRFTISRDNAKNTVYLQMNSLKPEDTAVDYCAADEYWWGYYYWGQGTQVTVSS | high polyreactivity
9 | QVQLVESRGCLVQAGGSLRLSCAASGSIFVNNAMGWYRPAPGYERELCAAITSGTRTNYADSVKGRFTISRDNAKNTVYLQMNSLKPEDTAVYYCATESAQYSWYYPGHPGYGYWGQGSQVTVSS | low polyreactivity
10 | QDQLVESGGGIVQAGGSLRLSCAASGRNFILNAMGLYRQAPGKERELVAAITWSGGGTYYADSVKGRFTISRDNAKNTVYLQMNSLKASDSAVYYCNRPAAVGEEDYWGQGTQVTVSS | low polyreactivity
11 | QVQREESGGGLVQAGGSLRLSCAASGRTFRYYAMGWSRQAPGKERELVAAITSGGGTNYADSVKGRFTISRDNAKNTVYLQMNSLKPEDTAVYYCAADHVYYDYDYWGQGTQVNVSS | low polyreactivity
12 | QVQLVESGGGLVQAGGSLRLSCAASGSTFGANAMGWYRQAPGKEREFVAAISRSGVRTYYADSVKGRFTISRDNAKNTVYLQMNSLKPEDTAVYYCAADGYWWTYKGQYDYWGQGTQVTVSS | low polyreactivity
13 | QVQLVESGGGLVQAGGSLRLSCAASGGTLGTYAMGWYRQAPGKERELVASIDSGDSTYYADSVKGRFTISRDNAKNTVYLQMNSLKPEDTAVYYCAAAYFRRYTTTWYGYEYWGQGTQVTVSS | low polyreactivity
14 | QVQLVESGGGLVQAGGSLRLSCAASGSIIRRNVMGWYRQAPGKERELVAASSWSGDRTYYADSVKGRFTISRDNAKNTVYLQMNSLKPEDTAVYYCAAANASPRRYGQYDYWGQGTQVTVSS | high polyreactivity
15 | QVQLVESGGGLVQAGGSLRLSCAASGIIFYDNAMGWYRQAPGKERELVATINYSGDSTYYADSVKGRFTISRDNAKNTVYLQMNSLKPADTAVYYCATDGAWQYYWVYSHEYWGQGTQVTVSS | low polyreactivity
16 | QVQLVESGGGLVQAGGSLRLSCAASGRIFNLNAMGWYRQAPGKERELVAAISKSGTRTYYADSVKGRFTISRDNAKNTVYLQMNSLKQEDTAVYYCAAEALYYDRLGWVYLRYDYWGQGTQVTVSS | high polyreactivity

Row | Sequence | polyreactivity (PSR sort gate)
17 | QVQLVESGGGLVQAGGSLRLSCAASGSIFFLYARGWYRQAPGKERELVAAISRSGGNTYYADSVKGRFTISRDNAKNSVYLQMNSLKPEDTAVYYCAADGVHRGGRGGYWGQGTQVTVSS | high polyreactivity
18 | QVQLVESGGGLVQAGGSLRLSCPASGGTFYVYAMGGYRQEPGKERELVAAISTSDGITYYADSVKGRFTISRDNAKNNVYLQMNSLKPEDTAVYYCAAVYAGVGSPVKRDYWGLGTQVTVSS | high polyreactivity
19 | QVHLVESGGGLVQAGGSLRLSCAASGLIFLWNAMGWYRQAPGKERELVAAISWSGGSTYYADSVKGRFTISRDNAKNTVYLQMNSLKPEDTAVYYCIRLLSLEFGFWGQGTQVTVSS | high polyreactivity
20 | QVQLVESGGGLVQAGGSLRLSCAASGSIFFWNTMGWYRQAPGKERELVAAISSGGSTYYADSVKGRFTISRDTAKNTVYLQMNSLRPEDTAVYYCAAVYSGLYSYYYWGQGTQVTVSS | low polyreactivity
21 | QVQLVESGGGLVQAGGSLRLSCAASGSTFYLYTMGWYRQAPGKERELVAAINRSGGRTYYADSVKGRFTISRDNAKNTVYLQMNSLKPEDTAVYYCATDSVTRGRSRGFDYWGQGTQVTVSS | high polyreactivity
22 | QVQLVESGGGLVHPGGSLRLSCDASGLILDGYAMGWYRQAPGKERELVAAITRSGGRTYYADSVKGRFTISRDNAKNTVNLQKNRQKPVDTAVYHSAALGWSGRYRYDYWGQGTQVTVSS | high polyreactivity
23 | QDQLVESGGGLVQAGGSLRLSCAASGSIFYAYTMGWYRQAPGKEMELVASITKSGGSTYYADSVKGRFTISRDNAKNTVYLQMNSLKPEDTAVYYCAAVVGRNRTRSYGYWGQGTQVTVSS | high polyreactivity
24 | LVQLVESGGGLVQAGGSLSLSCAAYGRTFAKNAMGWYRQAPGKERDLVAVINRSGGSTYADSVKGRFTISRDNAKNTVYLQMNSLKPEDTAVYYWADYYFRSYSKTYIYPFDYWGQGSQVTVSS | low polyreactivity
25 | QVQLVESGGGLVQAGGSLRLSCAAYGNTFYPYTMGWYRQAPGKERELVADITYIGGDTYYADSVKGRFTISRDNAKNTVYLQMNSLKPEDTAVYYCNKDGGYFETYHTYTLDDYWGQGTQVTVSS | low polyreactivity
26 | QVQLVESGGGLVQAGGSLRLSCAASGRTFRFYAMGWYRQAPGKEREFVAAISRSVGSTYYADSVKGRFTISRDNAKNTVDLQMNSLKPEDTAVYYCNADYRSRYVEYDYWGQGTQVTVSS | high polyreactivity
27 | QVQLVESGGGLVHAGGSLRLSCAPSAFTFAYYAMGWYRQAPGKEREFVAAITKGGGSTNYADSVKGRFTISRDNAKNTVYLQMYSLKPEDTAVYYSNADYFVWYIGRVFSRYGYWGQGTQVTVSS | low polyreactivity
28 | QVQLVESGGGLVQAGGSLRLSCAASGRTFSGYAKGGYRQAPGKERELVAAITSSGSSTYYADSVKGRFTISRDNAKNTVYLQMNSLKPEDTAVYYCAATPQAHSERYYYQRKYDYWGQGTQVTVSS | low polyreactivity
29 | QVQLVESGGGLVQAGGSLRLSCAASGSILIPNAMGWYRQAPGKERELVASISKSGGSTYYADSVKGRFTISRDNAKNTVYLPKNSLKPEDTAVYYCAAAFVSVRKRYGYWGQGTQVTVSS | high polyreactivity
30 | QVQLVESGGGLVQAGGRLRLSCAASGIIFSYYAMGWYRQAPGKERELVAAISWGGGSTYYADSVKGRFTISRDYAKNTVYLQMNSLKPEDTAVYYCAADYFDFFTGYEMGYWGQGTKVTVSS | high polyreactivity
31 | QVQLVESGGGLVQAGGSLRLSCAASGRTFYYNAMGWYRQAPGKEMELVAVITRGSTYYADSVKGRFTISRDNAKNTVYLQMNSLKPEDTAVYYCAKYRHYHRGYDYWGQGTQVTVSS | high polyreactivity
